Our source for the Kd values is paper PMC4192013.

The first test concerns the target GFP-FcγRIIIa, extracellular region of human FcγRIIIa (residues 19-193, V158 allotype) (human) (UniProt P08637). Briefly: ITC.
Consider “Human IgG1 Fc wt (residues 216-447) with G2F N-glycan (domain or fragment)”, for which the Kd (as a rule, the concentration at which binding is half-saturated) was 1200 nM.

A further test has the same target. As to the kind of experiment: SPR. Background: Surface plasmon resonance follows binding to a sensor surface in real time, without labels.
In turn, “Human IgG1 Fc K246F with G2F N-glycan (domain or fragment)” came in with a Kd of 340 nM. On the same count and under the same terms, as for “Human IgG1 Fc F241I/F243I with a single GlcNAc residue (domain or fragment)”, the figure is 6300 nM; as for “Human IgG1 Fc F241S with G2F N-glycan (domain or fragment)”, 1500 nM; as for “Human IgG1 Fc F241S/F243S with a single GlcNAc residue (domain or fragment)”, 3500 nM. On the same count and under the same terms, as for “Human IgG1 Fc F243S with G2F N-glycan (domain or fragment)”, the figure is 1900 nM; as for “Human IgG1 Fc wt (residues 216-447) with G2F N-glycan (domain or fragment)”, 550 nM. Still for that read-out and setting: as for “Human IgG1 Fc F241I/F243I with G2F N-glycan (domain or fragment)”, the figure is 10000 nM; as for “Human IgG1 Fc F241S/F243S with G2F N-glycan (domain or fragment)”, 29000 nM; as for “Human IgG1 Fc wt with a single GlcNAc residue (GlcNAc-Fc) (domain or fragment)”, 2400 nM. For the substance “Human IgG1 Fc F241I with G2F N-glycan (domain or fragment)”, the Kd is 2100 nM.

The target in the next test is Human IgG1 Fc wt (residues 216-447) with G2F N-glycan (human). Briefly: pull-down.
With “GFP-FcγRIIIa, extracellular region of human FcγRIIIa (residues 19-193, V158 allotype) (from UniProt P08637 19-193) (receptor)”, the Kd stood at 500 nM.
